PMC10238393 (2023)

T1: LPHN2 olfactomedin-like (Olf) domain (human, UniProt O95490 135-394)
T1 chain: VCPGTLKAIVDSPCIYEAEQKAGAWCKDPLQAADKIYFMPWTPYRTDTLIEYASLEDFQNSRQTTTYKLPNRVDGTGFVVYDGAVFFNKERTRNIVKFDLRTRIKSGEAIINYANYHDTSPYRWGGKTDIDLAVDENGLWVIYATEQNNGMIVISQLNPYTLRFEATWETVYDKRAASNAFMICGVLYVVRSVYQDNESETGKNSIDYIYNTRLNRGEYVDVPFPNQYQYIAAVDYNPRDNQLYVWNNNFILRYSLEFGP

T2: LPHN2 Lec (Homo sapiens)
T2 chain: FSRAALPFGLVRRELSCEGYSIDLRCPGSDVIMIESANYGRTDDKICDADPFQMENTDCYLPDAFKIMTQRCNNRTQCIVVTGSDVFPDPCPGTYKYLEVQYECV


Assays:
[1] = target: LPHN2 Lec/Olf domain (human); test: ELISA; solid-phase binding assay: LPHN2 extracellular domain variants (100 nM) coated on MaxiSorp 96-well plates, 1 h room temperature, blocked with 1% BSA; 0.001-10 μM LRG1 forms added; detected with anti-LRG1 antibody and peroxidase-conjugated secondary antibody
[2] = target: T1, LPHN2 olfactomedin-like (Olf) domain; test: ELISA
LPHN2 Lec = target: T2, LPHN2 Lec; test: ELISA
[3] = target: LPHN2 ecto-full domain (human); test: ELISA; solid-phase binding assay: LPHN2 extracellular domain variants (100 nM) coated on MaxiSorp 96-well plates, 1 h room temperature, blocked with 1% BSA; 0.001-10 μM LRG1 forms added; detected with anti-LRG1 antibody and peroxidase-conjugated secondary antibody
[4] = recombinant protein expression level; details: glycan lost; control: LRG1 WT

Row | Kd [1] | Binder | expression_or_secretion [4] | further results
1 | 920 nM | Leucine-rich α-2-glycoprotein 1 (LRG1), recombinant human, glycosylated (natural protein, N-linked glycans (N-acetylglucosamine seen in the crystal) at N79, N186, N269 and N325; Alexa 647-conjugated in the FACS assay) VTLSPKDCQVFRSDHGSSISCQPPAEIPGYLPADTVHLAVEFFNLTHLPANLLQGASKLQELHLSSNGLESLSPEFLRPVPQLRVLDLTRNALTGLPPGLFQASATLDTLVLKENQLEVLEVSWLHGLKALGHLDLSGNRLRKLPPGLLANFTLLRTLDLGENQLETLPPDLLRGPLQLERLHLEGNKLQVLGKDLLLPQPDLRYLFLNGNKLARVAAGAFQGLRQLDMLDLSNNSLASVPEGLWASLGQPNWDMRDGFDISGNPWICDQNLSDLYRWLQAQKDKMFSQNDTRCAGPEAVKGQTLLAVAKSQ |  | 
2 | 450 nM | Deglycosylated LRG1 (LRG1 treated with PNGase F) (natural protein, N-glycans removed by PNGase F; Alexa 647-conjugated in the FACS assay) VTLSPKDCQVFRSDHGSSISCQPPAEIPGYLPADTVHLAVEFFNLTHLPANLLQGASKLQELHLSSNGLESLSPEFLRPVPQLRVLDLTRNALTGLPPGLFQASATLDTLVLKENQLEVLEVSWLHGLKALGHLDLSGNRLRKLPPGLLANFTLLRTLDLGENQLETLPPDLLRGPLQLERLHLEGNKLQVLGKDLLLPQPDLRYLFLNGNKLARVAAGAFQGLRQLDMLDLSNNSLASVPEGLWASLGQPNWDMRDGFDISGNPWICDQNLSDLYRWLQAQKDKMFSQNDTRCAGPEAVKGQTLLAVAKSQ |  | Kd [2]: 450 nM; Kd (LPHN2 Lec): 1100 nM; Kd [3]: 840 nM
3 |  | leucine-rich α-2-glycoprotein 1 (LRG1): N79D (protein) parent chain: MSSWSRQRPKSPGGIQPHVSRTLFLLLLLAASAWGVTLSPKDCQVFRSDHGSSISCQPPAEIPGYLPADTVHLAVEFFNLTHLPANLLQGASKLQELHLSSNGLESLSPEFLRPVPQLRVLDLTRNALTGLPPGLFQASATLDTLVLKENQLEVLEVSWLHGLKALGHLDLSGNRLRKLPPGLLANFTLLRTLDLGENQLETLPPDLLRGPLQLERLHLEGNKLQVLGKDLLLPQPDLRYLFLNGNKLARVAAGAFQGLRQLDMLDLSNNSLASVPEGLWASLGQPNWDMRDGFDISGNPWICDQNLSDLYRWLQAQKDKMFSQNDTRCAGPEAVKGQTLLAVAKSQ | no change | 
4 |  | leucine-rich α-2-glycoprotein 1 (LRG1): N325D (protein) parent chain: MSSWSRQRPKSPGGIQPHVSRTLFLLLLLAASAWGVTLSPKDCQVFRSDHGSSISCQPPAEIPGYLPADTVHLAVEFFNLTHLPANLLQGASKLQELHLSSNGLESLSPEFLRPVPQLRVLDLTRNALTGLPPGLFQASATLDTLVLKENQLEVLEVSWLHGLKALGHLDLSGNRLRKLPPGLLANFTLLRTLDLGENQLETLPPDLLRGPLQLERLHLEGNKLQVLGKDLLLPQPDLRYLFLNGNKLARVAAGAFQGLRQLDMLDLSNNSLASVPEGLWASLGQPNWDMRDGFDISGNPWICDQNLSDLYRWLQAQKDKMFSQNDTRCAGPEAVKGQTLLAVAKSQ | no change | 
5 |  | leucine-rich α-2-glycoprotein 1 (LRG1): N186D (protein) parent chain: MSSWSRQRPKSPGGIQPHVSRTLFLLLLLAASAWGVTLSPKDCQVFRSDHGSSISCQPPAEIPGYLPADTVHLAVEFFNLTHLPANLLQGASKLQELHLSSNGLESLSPEFLRPVPQLRVLDLTRNALTGLPPGLFQASATLDTLVLKENQLEVLEVSWLHGLKALGHLDLSGNRLRKLPPGLLANFTLLRTLDLGENQLETLPPDLLRGPLQLERLHLEGNKLQVLGKDLLLPQPDLRYLFLNGNKLARVAAGAFQGLRQLDMLDLSNNSLASVPEGLWASLGQPNWDMRDGFDISGNPWICDQNLSDLYRWLQAQKDKMFSQNDTRCAGPEAVKGQTLLAVAKSQ | no change | 
6 |  | leucine-rich α-2-glycoprotein 1 (LRG1): N269D (protein) parent chain: MSSWSRQRPKSPGGIQPHVSRTLFLLLLLAASAWGVTLSPKDCQVFRSDHGSSISCQPPAEIPGYLPADTVHLAVEFFNLTHLPANLLQGASKLQELHLSSNGLESLSPEFLRPVPQLRVLDLTRNALTGLPPGLFQASATLDTLVLKENQLEVLEVSWLHGLKALGHLDLSGNRLRKLPPGLLANFTLLRTLDLGENQLETLPPDLLRGPLQLERLHLEGNKLQVLGKDLLLPQPDLRYLFLNGNKLARVAAGAFQGLRQLDMLDLSNNSLASVPEGLWASLGQPNWDMRDGFDISGNPWICDQNLSDLYRWLQAQKDKMFSQNDTRCAGPEAVKGQTLLAVAKSQ | no change | 
